{"source": "patent US8524947B2", "about": "“Acylsulfonamides and processes for producing the same” (University of South Florida, priority 2008, dated 2013)", "key": {"[1]": {"biological_target": "T1, Bcl-XL (Homo sapiens, UniProt Q07817)", "T1 sequence (Q07817 whole entry)": "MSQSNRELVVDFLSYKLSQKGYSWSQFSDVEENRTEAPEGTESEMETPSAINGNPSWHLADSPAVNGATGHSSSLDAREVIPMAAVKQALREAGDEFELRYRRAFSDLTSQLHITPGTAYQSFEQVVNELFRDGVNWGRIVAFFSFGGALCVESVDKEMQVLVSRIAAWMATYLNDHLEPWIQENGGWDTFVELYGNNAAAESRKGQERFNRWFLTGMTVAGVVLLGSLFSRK", "conditions": "compared to wildtype Bak BH3 and Bim peptides; cited from earlier work"}, "[2]": {"biological_target": "T1, Bcl-XL", "test": "Suppression of Bcl-XL-templated incubations of (SZ4) and (TA2) by BH3 peptides (LC/MS-SIM)", "format": "biochemical", "conditions": "for amount of acylsulfonamide (SZ4TA2) in Bcl-XL incubations containing the peptide: compared to the Bcl-XL incubations containing wild type Bak BH3 and Bim peptides", "procedure": "In a 96-well plate, one thio acid building block (1 μL of a 2 mM solution in methanol) and one sulfonyl azide building block (1 μL of a 2 mM solution in methanol) were added to a solution of Bcl-XL (98 μL of a 2 μM Bcl-XL solution in buffer (58 mM Na2HPO4, 17 mM NaH2PO4, 68 mM NaCl, 1 mM NaN3, pH=7.40)). The 96-well plate was sealed and incubated at 38.5° C. for six hours. The incubation samples were then subjected to liquid chromatography combined with mass spectrometry analysis in the selected ion mode (LC-MS-SIM, Zorbax SB-C18 preceded by a Phenomenex C18 guard column, electrospray ionization and mass spectroscopic detection in the positive selected ion mode, tuned to the expected molecular mass of the product). The TGS hit compound was identified by the mass and retention time. As a control, identical building block combinations were incubated in buffer without Bcl-XL and subjected to LC/MS-SIM analysis. Comparison of the LC-MS-SIM chromatograms of these control incubations with the chromatograms of the Bcl-XL containing incubations allows to determine whether the protein is templating the corresponding amidation reactions or not. For the Bcl-XL containing incubation sample showing acylsulfonamide formation, a second control has been undertaken. Synthetically prepared acylsulfonamide was subjected to LC/MS-SIM analysis and the retention time was compared with the retention time identified in the Bcl-XL containing incubation.\nAdditional control experiments have been performed to test whether the Bcl-XL-templated reaction occurs at the BH3 binding site on Bcl-XL. Reactive building blocks (SZ4) and (TA2) were incubated with Bcl-XL and pro-apoptotic Bak BH3 peptide. Bak is one of the natural Bcl-XL ligands and theoretically competes with the reactive building blocks for binding on Bcl-XL during the incubations. The influence of Bak BH3 peptide on the Bcl-XL-templated reaction was studied at different ratios of Bak BH3 peptide and Bcl-XL (FIG. 10).\nAdditional control experiments have been performed with Bim, mutant Bim, and mutant Bak. […]"}}}
{"substance": "mutant Bak: mutant Bak BH3 peptide; sequence CMGQVGRQAAIIGADINRRYDS", "values": [{"measurement": "affinity towards Bcl-XL", "setting": "[1]", "result": "lower affinity"}, {"measurement": "amount of acylsulfonamide (SZ4TA2) in Bcl-XL incubations containing the peptide", "setting": "[2]", "result": "increased amount"}]}
{"substance": "mutant Bim: mutant Bim BH3 peptide; sequence CEIWIAQEARRIGAEFNAYYAR", "values": [{"measurement": "affinity towards Bcl-XL", "setting": "[1]", "result": "lower affinity"}, {"measurement": "amount of acylsulfonamide (SZ4TA2) in Bcl-XL incubations containing the peptide", "setting": "[2]", "result": "increased amount"}]}
{"substance": "Bak BH3 peptide: pro-apoptotic Bak BH3 peptide, a natural Bcl-XL ligand; sequence CMGQVGRQLAIIGDDINRRYDS", "values": [{"measurement": "Bcl-XL-templated reaction (formation of SZ4TA2)", "setting": "[2]; 20 μM Bak BH3 peptide, (SZ4) and (TA2) with Bcl-XL, compared to the Bcl-XL incubation without Bak BH3", "result": "significantly suppressed"}]}
